Measurements published in article PMC6221358, “The Zn2Cys6-type transcription factor LeuB cross-links regulation of leucine biosynthesis and iron acquisition in Aspergillus fumigatus”.

Target: T1, LeuB DBD (LeuBM50-125YS, SPR) (Aspergillus fumigatus, UniProt Q4WI12 224-299)
T1 sequence: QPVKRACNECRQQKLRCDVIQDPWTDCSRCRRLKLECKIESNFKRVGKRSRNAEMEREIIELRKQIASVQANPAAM
Assay: SPR; 10 uM ZnCl2; 30 ug/ml poly(dAdT); SPR: 10 mM HEPES pH 7.4, 150 mM NaCl, 0.005% P20, 5 mM beta-mercaptoethanol, 10 uM ZnCl2, 25 C, LeuB DBD 6.25-400 nM with 30 ug/ml poly(dAdT); EMSA: as previously described (not given), 1 ug salmon sperm DNA as nonspecific or 100-fold cold probe as competitor
Conditions: protein: recombinant; tags: none stated; chain copies: 2; label: biotin; 16 bp duplex

B1: leuA 16 bp SPR duplex (dsDNA)
DNA 1: GGACCGATGTCGGATC
DNA 2: GATCCGACATCGGTCC
  Kd: 95.2 nM

B2: hapX 16 bp SPR duplex (dsDNA)
DNA 1: CCGCCGAAATCGGGAA
DNA 2: TTCCCGATTTCGGCGG
  Kd: 160 nM
